In the supplement of paper PMC10567573:
± gives the standard deviation.

Test: protein stability index of a GFP-peptide fusion (GPS, HEK-293T) (PSI 1-6); higher = more stable
[1] = treatment: DMSO, c terminus: a fixed tail appended
[2] = treatment: MLN4924 1 uM, 8 h, c terminus: a fixed tail appended
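Further: 24-mer peptide tiles fused after GFP, lentivirally expressed, FACS-sorted into six equal bins by GFP/DsRed ratio, decoded by Illumina sequencing, PSI is the read-weighted mean bin number.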

Sequence | protein stability index [1] | protein stability index [2] | protein stability index (treatment: DMSO, c terminus: native) | protein stability index (treatment: MLN4924 1 uM, 8 h, c terminus: native)
KRRGPQRSVDVVVSSVFLLTLSIA [PHTF1] | 2.55 ± 0.32 | 2.33 ± 0.23 |  | 
FARHIKKSEGQKIPKVELQISIYG [GULP1] | 2.06 ± 0.41 | 1.9 ± 0.26 |  | 
MDGESEEEQESVDTGEEEEGGDES [EHMT1] | 5.66 ± 0.15 | 5.51 ± 0.16 |  | 
PTTRNYPELNNNQYNRSSNSNGGN [CDC14A] | 4.654 ± 0.022 | 4.79 ± 0.1 |  | 
CVLTTPCLTQSTAAPAVRASSSPV [SLA] | 3.47 ± 0.13 | 3.49 ± 0.14 |  | 
QFAISRELIRNIYNSFHKLRDRAE [SNX8] | 2.19 ± 0.13 | 2.23 ± 0.21 |  | 
NKQGHGCESDIWALGCVMYTMLLG [PLK2] | 2.87 ± 0.58 | 2.54 ± 0.064 |  | 
PTPSSPLPSVPVSVPASDPRSCSS [PLEKHN1] | 5.15 ± 0.2 | 5.14 ± 0.26 |  | 
AGSHQYPGRGVYLLKFDNSYSLWR [ACBD3] | 2.43 ± 0.25 | 2.22 ± 0.29 |  | 
AQVRKLELERAQHELLLGSLQQQH [FBF1] | 3.62 ± 0.18 | 3.71 ± 0.17 |  | 
TSANKITLVSSGSGTMGAAKVTGE [FLOT1] | 4.63 ± 0.12 | 4.69 ± 0.26 |  | 
MNLHVYISEHEHFTDFNATSALFW [CLPTM1] | 2.94 ± 0.5 | 2.79 ± 0.39 |  | 
PQTPAAPPATLGEGSADTEDRKLP [EHMT1] | 5.44 ± 0.28 | 5.36 ± 0.35 |  | 
YHYGVASCEACKAFFKRTIQGNIE [ESRRG] | 2.43 ± 0.19 | 2.65 ± 0.58 |  | 
EISVDSLDFSKKILHTAWHPSENI [PPP2R2B] | 2.28 ± 0.26 | 2.41 ± 0.21 |  | 
AHLAAEVEGKCLQSGFEMLKDVKS [TRIM39] | 4.17 ± 0.22 | 4.62 ± 0.28 |  | 
TNRWSFDGIDRWIKEIDEHAPGVP [RAB40C] | 3.91 ± 0.17 | 3.97 ± 0.22 |  | 
MCNVKAPLGSPSPRPRRAKRFASL [ADAMTS4] | 3.69 ± 0.26 | 3.77 ± 0.21 |  | 
YPWDENHCKEKRKTSLLDQLTNTS [NETO1] | 3.94 ± 0.21 | 4.07 ± 0.25 |  | 
ACTRSLLGDPPPLLTLPRPPLSGA [HDAC6] | 3.44 ± 0.37 | 3.58 ± 0.26 |  | 
FLTFDKQVLRFYAIWDDTDSMYGE [EFHC1] | 2.49 ± 0.41 | 2.46 ± 0.55 |  | 
ESTIVELGSIFQQLAHMVKEQEET [STX5] | 2.4 ± 0.7 | 3.25 ± 0.094 |  | 
QELCEGLLEESDGEGEPGQGEGPE [NOP53] | 5.6 ± 0.14 | 5.56 ± 0.11 |  | 

Sequence | protein stability index [1] | protein stability index [2] | protein stability index (treatment: DMSO, c terminus: native) | protein stability index (treatment: MLN4924 1 uM, 8 h, c terminus: native)
PVLRFDALWQVLARDCFATGRHYW [TRIM14] | 3.5 ± 0.53 | 3.21 ± 0.88 |  | 
EVGPQEINKEELEGNSMRCGRKLA [GMCL1] | 4.75 ± 0.48 | 4.76 ± 0.3 |  | 
TKPLAIHPCGDKNCPAHWLAQDWE [ADAMTSL2] | 2.73 ± 0.79 | 2.73 ± 0.12 |  | 
PPYLPLAVPEDLADRLVRVHGDPA [FUT8] | 4.22 ± 0.12 | 4.31 ± 0.28 |  | 
SAETGSPRLTMHYPCLEKPRIWSL [IRX6] | 2.4 ± 0.1 | 2.22 ± 0.43 |  | 
ACGGLDNKCSVYPLTFDKNENMAA [GNB5] | 3.69 ± 0.093 | 3.43 ± 0.41 |  | 
EDLATAYNNRGQIKYFRVDFYEAM [TTC32] | 2.21 ± 0.17 | 2.23 ± 0.32 |  | 
GHEKTAKSKTRSLLKRMESLKLKS [DLC1] | 3.62 ± 0.17 | 3.89 ± 0.5 |  | 
PPRRGVSGDRDENSFSLNSSISSS [MAP2] | 4.84 ± 0.14 | 4.74 ± 0.24 |  | 
ISEKLTLLPTLYEIHSKTTAYSRL [RNF180] | 2.51 ± 0.29 | 2.06 ± 0.085 |  | 
VTFGNKQKVLGKALSLIRFPLMTI [BTBD1] | 2.4 ± 0.041 | 2.4 ± 0.75 |  | 
KNERLWLLDDSKTWWRVRNAANRT [NCK2] | 2.31 ± 0.23 | 2.62 ± 0.37 |  | 
RPEEEEDELAHRCSSFMAPPVTDL [CPOX] | 5.05 ± 0.26 | 5.03 ± 0.18 |  | 
LQLGAAKKPPVTFAEKGELRKSIF [TRIM29] | 3.14 ± 0.16 | 3.25 ± 0.21 |  | 
LGVCASGLLIYRDRLRINRFAWPK [EPB41L3] | 2.06 ± 0.046 | 2.4 ± 0.26 |  | 
YWEAWRHHCQGKDLTEWVDGCDF [SPACA3] |  |  | 2.84 ± 0.15 | 3.04 ± 0.25
LKVAAESCKADVVELLLSHADCDR [FEM1B] | 3.16 ± 0.19 | 3.13 ± 0.36 |  | 
KGTFKDYVRDRADLNKDKPVIPAA [ETS1] | 4.35 ± 0.13 | 4.43 ± 0.16 |  | 
LQQQNEDLKARIDQNTVVTRQLSE [MTUS2] | 5.1 ± 0.26 | 5.21 ± 0.083 |  | 
RTEIISRSWFPSAPGSASSSKVSG [YJU2B] | 3.94 ± 0.13 | 3.97 ± 0.15 |  | 
LCKDCQVIDGRNVTVTDVDIVFSK [TPPP] | 2.89 ± 0.28 | 3.3 ± 0.47 |  | 
LSDDYEQVRSAAVQLIWVVSQLYP [INTS4] | 2.08 ± 0.43 | 2.13 ± 0.45 |  | 
DGLFDNMPDYMILQELKKLKNSNY [PPTC7] | 2.57 ± 0.3 | 2.85 ± 0.64 |  | 

Sequence | protein stability index [1] | protein stability index [2] | protein stability index (treatment: DMSO, c terminus: native) | protein stability index (treatment: MLN4924 1 uM, 8 h, c terminus: native)
VGDLMGSLAYCLACGGGHLLPYFY [DHCR7] | 3.12 ± 0.28 | 3.47 ± 0.39 |  | 
RERADIGGLMARPEYREWNPELIK [FAM107A] | 4.16 ± 0.12 | 3.8 ± 0.18 |  | 
AKDEDQWTALHFAAQNGDESSTRL [RIPK4] | 4.54 ± 0.95 | 5.086 ± 0.023 |  | 
RIKEVEHMTRHLEESEKAMQERVQ [LRRC45] | 5 ± 0.22 | 4.99 ± 0.21 |  | 
SFVDKLLDLMPRLMTSKPAEVVKI [INTS4] | 2.73 ± 0.64 | 2.61 ± 0.63 |  | 
LKDLLLQVGRGLRYIHSMSLVHMD [WEE1] | 2.64 ± 0.74 | 2.85 ± 0.69 |  | 
PKGGQVQIVTKKIDLSHVTSKCGS [MAP2] | 3.92 ± 0.18 | 3.91 ± 0.37 |  | 
ELQGFWMDIGQPKDFLTGMCLFLQ [GMPPB] | 2.19 ± 0.25 | 2.01 ± 0.35 |  | 
KYKCLLQQLYYTEADYEDDSKIAF [IQUB] | 2.12 ± 0.6 | 2.02 ± 0.32 |  | 
RTLPAFQVPYPPRQLLRDFQSRLP [P3H4] | 2.76 ± 0.2 | 2.92 ± 0.54 |  | 
AVGYQPEYSKFCRMSYQDPAQLSC [NFE2L1] | 2.63 ± 0.41 | 2.2 ± 0.44 |  | 
NWKETLVFPPEVPISEKAKDLILR [STK38L] | 2.81 ± 0.43 | 3.28 ± 0.29 |  | 
LKYQAPDIDVQLSSELTDSLRTLK [NOP53] | 2.79 ± 0.14 | 3.14 ± 0.45 |  | 
SSPRSVDSYSSTQHVPEELDLSSS [ATF6] | 5.29 ± 0.52 | 5.4 ± 0.24 |  | 
PCPLGEPKTQACSGSESPSDSGKD [MYCL] | 5.41 ± 0.24 | 5.41 ± 0.17 |  | 
IFCIKRFTKNNFFVEKNPTIVNFP [USP39] | 3.02 ± 0.74 | 2.38 ± 0.76 |  | 
DLHCVLVTNPHSSQWKDPALSQLI [GADD45A] | 2.23 ± 0.26 | 2.3 ± 0.16 |  | 
ARTQMILLRRSVEGASSDNGCEVK [PHTF1] | 3.68 ± 0.24 | 3.98 ± 0.2 |  | 
AIPTKKSLPSPSSSGHQNRRFSSE [FBF1] | 4.82 ± 0.27 | 4.9 ± 0.15 |  | 
EFLELSPQKLKEVISLEKLNVGNE [GAN] | 3.44 ± 0.61 | 3.09 ± 0.51 |  | 
QRVVYLEGCGPPLRRWLRANLAAS [TSPAN10] | 2.26 ± 0.33 | 2.11 ± 0.24 |  | 
FGQQDWKFLASHFPNRTDQQCQYR [MYBL2] | 2.62 ± 0.36 | 3.08 ± 0.27 |  | 
HGRGTEVLLEEPLPLETARESPSF [ZNF263] | 4.69 ± 0.28 | 4.81 ± 0.25 |  | 

Sequence | protein stability index [1] | protein stability index [2] | protein stability index (treatment: DMSO, c terminus: native) | protein stability index (treatment: MLN4924 1 uM, 8 h, c terminus: native)
NTNPKEVQEMRNKIREQNLQDIKT [ADD1] | 4.98 ± 0.18 | 5.11 ± 0.13 |  | 
FLLDVIPVDGARYRWQGRRWEPSG [TBX6] | 1.81 ± 0.33 | 2.4 ± 0.3 |  | 
MDVSREEAPQWLESDSCQKCEQPF [WDFY1] | 4.89 ± 0.17 | 4.92 ± 0.32 |  | 
EEAGSQENHPQESKGQPRSQEESE [CHGB] | 5.57 ± 0.25 | 5.64 ± 0.17 |  | 
APDKTSTVLTRHSQPATPTPLQSR [PDLIM7] | 4.68 ± 0.17 | 4.82 ± 0.23 |  | 
VAVKKKLQLYFWKDREFHELQGDF [VPS39] | 2.12 ± 0.3 | 2.06 ± 0.58 |  | 
PMVLKGKIRPDSSRPELLQPLNFV [GLT8D2] | 2.83 ± 0.2 | 3 ± 0.3 |  | 
DMEKILEIIRVILKLYEQWKNFDE [CCNC] | 2.47 ± 0.2 | 2.66 ± 0.42 |  | 
NPEEIRGGGLLKYSNLLVRDFRPT [TENT5C] | 3.04 ± 0.3 | 3.14 ± 0.31 |  | 
LQHAVELKPLCGCHSFAAAADGPT [SMAD6] | 3.16 ± 0.21 | 3.17 ± 0.28 |  | 
QMGVSAKRRPKAQPTTLVLPPQYV [MED27] | 2.99 ± 0.19 | 3.1 ± 0.19 |  | 
GADNIDVSHPIIYRGAVYADNMEF [FEM1B] | 3.11 ± 0.17 | 3.21 ± 0.48 |  | 
LRSQLQTLKQQHQQAVEQIAKAEE [CCDC89] | 4.66 ± 0.15 | 4.76 ± 0.11 |  | 
KGTILKASVDYIRKLQKEQQRSKD [TFE3] | 3.41 ± 0.19 | 3.79 ± 0.38 |  | 
FMKYVDSNLCCFIPGKVIDEIYRV [FBXO28] | 2.99 ± 0.91 | 2.65 ± 0.4 |  | 
LIGRPGNKTQQVIHIIDFGLAKEY [CSNK1G3] | 2.38 ± 0.69 | 2.4 ± 0.43 |  | 
KLQQLPADFGRLVNLQHLDLLNNK [LRRC59] | 2.97 ± 0.27 | 3.01 ± 0.33 |  | 
VEKVLRRWVDEEWPKRERGDPSRH [EDARADD] | 2.97 ± 0.43 | 3.28 ± 0.67 |  | 
QLSRLNITYPMLFKLTNKNSDRMT [UFD1] | 2.33 ± 0.14 | 2.58 ± 0.42 |  | 
VLGAHRGHPVGLALEAAVHVQKLS [TRIM14] | 2.63 ± 0.3 | 2.91 ± 0.26 |  | 
